One block for each molecule: values may come before it. No end group written: not given here.
How the values were obtained:
Assay in all cases: grating-coupled interferometry
[1] = biological target: SARNP UCM-1 peptide (GCI) (human)
[2] = biological target: SARNP UCM-1 and UCM-4 peptides
[3] = biological target: TREX-2^M, minimal recombinant TREX-2 complex (GANP Sac3 domain residues 582-1004, PCID2, SEM1) (human) (UniProt O60318)
[4] = biological target: UAP56 (DDX39B), recombinant wild type (human, UniProt Q13838 1-428)
UAP56 (DDX39B), recombinant wild type (human, UniProt Q13838 1-428), sequence (Q13838 whole entry): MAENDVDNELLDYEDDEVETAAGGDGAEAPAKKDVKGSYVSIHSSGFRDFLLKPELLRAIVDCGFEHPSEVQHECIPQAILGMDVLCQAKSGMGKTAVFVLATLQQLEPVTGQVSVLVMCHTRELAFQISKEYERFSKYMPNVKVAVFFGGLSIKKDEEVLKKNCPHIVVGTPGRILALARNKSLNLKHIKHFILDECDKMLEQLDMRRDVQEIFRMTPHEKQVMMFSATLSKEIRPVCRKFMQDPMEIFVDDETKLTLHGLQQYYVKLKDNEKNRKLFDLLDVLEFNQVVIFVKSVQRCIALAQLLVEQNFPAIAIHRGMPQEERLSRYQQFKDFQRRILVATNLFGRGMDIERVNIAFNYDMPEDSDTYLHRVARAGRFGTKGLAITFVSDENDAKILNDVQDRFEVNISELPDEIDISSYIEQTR

UAP56 (DDX39B), recombinant wild type (from UniProt Q13838 1-428) (enzyme), sequence (Q13838 whole entry): as above
TREX-2^M, minimal recombinant TREX-2 complex (GANP Sac3 domain residues 582-1004, PCID2, SEM1) (human), sequence (O60318 582-1004, chain 1 of 3): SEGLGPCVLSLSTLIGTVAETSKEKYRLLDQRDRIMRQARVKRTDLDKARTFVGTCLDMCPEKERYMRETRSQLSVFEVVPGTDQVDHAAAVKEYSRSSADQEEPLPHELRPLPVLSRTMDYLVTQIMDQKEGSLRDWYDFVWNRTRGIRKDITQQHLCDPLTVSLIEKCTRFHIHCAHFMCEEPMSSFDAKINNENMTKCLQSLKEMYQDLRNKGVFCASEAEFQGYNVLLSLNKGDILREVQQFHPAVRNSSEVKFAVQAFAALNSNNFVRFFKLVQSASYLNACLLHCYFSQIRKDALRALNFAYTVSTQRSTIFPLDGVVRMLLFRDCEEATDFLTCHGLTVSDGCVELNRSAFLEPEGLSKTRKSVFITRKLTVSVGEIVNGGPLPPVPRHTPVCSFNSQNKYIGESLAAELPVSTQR
TREX-2^M, minimal recombinant TREX-2 complex (GANP Sac3 domain residues 582-1004, PCID2, SEM1) (human), sequence (Q5JVF3 whole entry, chain 2 of 3, further chain, the tested form may be a part): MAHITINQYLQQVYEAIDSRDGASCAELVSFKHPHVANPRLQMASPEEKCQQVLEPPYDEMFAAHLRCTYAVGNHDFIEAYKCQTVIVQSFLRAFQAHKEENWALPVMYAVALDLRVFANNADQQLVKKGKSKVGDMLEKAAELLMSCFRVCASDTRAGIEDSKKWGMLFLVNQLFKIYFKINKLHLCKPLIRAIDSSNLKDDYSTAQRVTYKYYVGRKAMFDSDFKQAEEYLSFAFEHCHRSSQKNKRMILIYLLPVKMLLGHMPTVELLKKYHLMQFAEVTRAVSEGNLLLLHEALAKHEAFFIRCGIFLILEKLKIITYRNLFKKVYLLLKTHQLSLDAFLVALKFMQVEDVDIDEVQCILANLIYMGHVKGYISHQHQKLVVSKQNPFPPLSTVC
TREX-2^M, minimal recombinant TREX-2 complex (GANP Sac3 domain residues 582-1004, PCID2, SEM1) (human), sequence (P60896 whole entry, chain 3 of 3, further chain, the tested form may be a part): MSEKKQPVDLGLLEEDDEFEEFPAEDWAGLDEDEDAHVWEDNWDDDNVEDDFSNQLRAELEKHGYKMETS

- Kd [1]: 12 µM
- Kd [2]: 10 to 20 µM
Molecule: UAP56 (DDX39B), recombinant wild type (from UniProt Q13838 1-428) (enzyme)

- Kd [3]: 0.17 µM
Molecule: UAP56 lacking residues 1-28 (from UniProt Q13838 28-428) (domain or fragment)

- Kd [4]: 24 µM
Molecule: MDMSLDDII (also: biotin, position not given here) [ALYREF N-UBM peptide (GCI)]

Source: paper doi:10.1101/2024.03.24.586400 (bioRxiv, 2024)
